# From US20070141652
# How the values were obtained:
# [1] = biological target: purified wild-type Xenopus TPX2 (GST tag removed)
# [2] = biological target: ΔNTPX2 (Xenopus TPX2 with amino acid 1 to 40 deleted, GST tag removed)
protein,measurement,setting,value
"Xenopus Aurora A kinase (AurA, also called Eg2), endogenous in egg extracts (protein) MERAVKENHKPSNVKIFHPMTEGAKRIPVNQPQSTQFRPPGTAVSAQRILGPSNVPQRVLAQAQKPILSSQKPTTQIPLRPATQGHQSSKPQGPNENRNPQQTSHSSTPNVEKKGSTDQGKTSAVPKEEGKKKQWCLEDFEIGRPLGKGKFGNVYLARERESKFILALKVLFKSQLEKAGVEHQLRREVEIQSHLRHPNILRLYGYFHDASRVYLILDYAPGGELFRELQKCTRFDDQRSAMYIKQLAEALLYCHSKKVIHRDIKPENLLLGSNGELKIADFGWSVHAPSSRRTTLCGTLDYLPPEMIEGRMHDETVDLWSLGVLCYEFLVGKPPFETDTHQETYRRISKVEFQYPPYVSEEARDLVSKLLKHNPNHRLPLKGVLEHPWIIKNSQLKKKDEPLPGAQ","AurA activation, as determined by autophosphorylation of the activation loop at threonine 295 of AurA with antibody recognizing phospho-T295",[1],RanGTP-induced AurA activation in TPX2-depleted egg extracts could be rescued by adding purified wild-type TPX2
same,"AurA activation, as determined by autophosphorylation of the activation loop at threonine 295 of AurA with antibody recognizing phospho-T295",[2],AurA activation was either completely lacking or slightly enhanced compared to the TPX2-depleted egg extract
